The target of one assay is SB105-A10-PEG-biotin. The assay is described as follows: SPR; BIAcore X100; biotinylated SB105-A10 immobilised on SA streptavidin sensorchip (560 RU, 0,12 pmol/mm^2); gp41 (0.61-10 nM) or gp120 (12.5-100 nM) injected in HBS-EP (10 mM HEPES pH 7.4, 150 mM NaCl, 3 mM EDTA, 0.005% surfactant P20), 3 min association, 10 min wash; streptavidin-alone surface for blank subtraction; steady-state affinity from RU at equilibrium.

The next assay relates to gp120. The conditions noted are these: ref [71], [72]; cited from earlier work.

Take “HIV-1 glycosilated recombinant gp41 ectodomain (amino acids 546-682) (from UniProt P04578 546-682) (domain or fragment)”: the Kd in the assay with SB105-A10-PEG-biotin was 3.9 nM.

cellulose sulfate: the “recognition of positively charged regions on gp120” value in the assay with gp120 is “recognize positively charged regions on gp120”.

By Kd is commonly meant a measure of binding affinity in units of concentration. A lower Kd goes with tighter binding.
